These results are taken from patent US8974774.

The test concerns the target carcinoembryonic antigen (human) (UniProt P06731).
UniProt P06731, sequence (P06731 35-702): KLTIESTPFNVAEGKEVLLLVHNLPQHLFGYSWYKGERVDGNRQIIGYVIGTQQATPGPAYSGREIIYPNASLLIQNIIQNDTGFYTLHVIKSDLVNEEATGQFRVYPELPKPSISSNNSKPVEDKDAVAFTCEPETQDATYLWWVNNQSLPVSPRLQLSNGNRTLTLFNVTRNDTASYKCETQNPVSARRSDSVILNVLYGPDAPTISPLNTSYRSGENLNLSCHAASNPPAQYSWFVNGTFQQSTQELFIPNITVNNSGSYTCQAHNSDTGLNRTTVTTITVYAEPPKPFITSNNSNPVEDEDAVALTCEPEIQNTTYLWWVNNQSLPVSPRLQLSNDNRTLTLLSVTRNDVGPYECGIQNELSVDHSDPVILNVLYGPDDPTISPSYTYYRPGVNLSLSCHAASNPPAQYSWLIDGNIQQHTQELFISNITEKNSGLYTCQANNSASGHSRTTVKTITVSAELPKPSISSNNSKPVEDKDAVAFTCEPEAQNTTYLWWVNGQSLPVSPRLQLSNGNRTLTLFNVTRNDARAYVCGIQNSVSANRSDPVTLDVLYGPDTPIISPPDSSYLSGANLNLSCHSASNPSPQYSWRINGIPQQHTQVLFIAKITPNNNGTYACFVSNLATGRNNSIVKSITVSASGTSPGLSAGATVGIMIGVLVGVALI

Regarding “Monoclonal antibody to carcinoembryonic antigen (CEA; clone CD66e, US Biological) covalently conjugated to anionic polyaspartate (3K MW)”, the percent of colon carcinoma cells positive for fluorescein signal was 87.6%.
